Reference: US20230303695A1 (SHANGHAI XBH BIOTECHNOLOGY, published 2023)

T1: IGSF8 extracellular domain (ED) (Homo sapiens (Human), UniProt Q969P0 28-579)
T1 construct: also called IGSF8 ECD
T1 sequence: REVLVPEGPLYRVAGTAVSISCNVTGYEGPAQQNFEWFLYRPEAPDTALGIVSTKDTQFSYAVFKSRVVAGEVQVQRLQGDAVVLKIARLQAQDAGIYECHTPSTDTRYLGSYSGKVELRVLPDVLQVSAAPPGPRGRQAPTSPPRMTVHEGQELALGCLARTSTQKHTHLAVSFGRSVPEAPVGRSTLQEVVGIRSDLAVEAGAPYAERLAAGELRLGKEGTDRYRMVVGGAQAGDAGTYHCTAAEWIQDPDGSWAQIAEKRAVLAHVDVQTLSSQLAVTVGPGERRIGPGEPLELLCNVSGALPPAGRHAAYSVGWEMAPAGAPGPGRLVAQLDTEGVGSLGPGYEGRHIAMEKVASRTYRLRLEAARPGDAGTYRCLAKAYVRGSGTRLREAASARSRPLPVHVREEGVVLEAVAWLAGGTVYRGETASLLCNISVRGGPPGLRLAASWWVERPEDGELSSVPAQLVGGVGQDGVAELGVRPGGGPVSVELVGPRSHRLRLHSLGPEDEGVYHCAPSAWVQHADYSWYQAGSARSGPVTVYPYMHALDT

T2: D1 domain of IGSF8 (recombinant protein) (human, UniProt Q969P0 28-149, limits assumed)
T2 construct: domain: D1 (Ig V-set domain); also called Ig V-set domain of IGSF8
T2 sequence (looked up): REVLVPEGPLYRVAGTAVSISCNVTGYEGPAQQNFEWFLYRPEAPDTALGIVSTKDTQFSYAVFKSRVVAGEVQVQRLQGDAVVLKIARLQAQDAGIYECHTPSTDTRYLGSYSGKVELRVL

T3: full-length IGSF8 (recombinant antigen of the SPR screen; IGSF8 target antigen of the phage panning) (human, UniProt Q969P0 28-579, limits assumed)
T3 sequence (looked up): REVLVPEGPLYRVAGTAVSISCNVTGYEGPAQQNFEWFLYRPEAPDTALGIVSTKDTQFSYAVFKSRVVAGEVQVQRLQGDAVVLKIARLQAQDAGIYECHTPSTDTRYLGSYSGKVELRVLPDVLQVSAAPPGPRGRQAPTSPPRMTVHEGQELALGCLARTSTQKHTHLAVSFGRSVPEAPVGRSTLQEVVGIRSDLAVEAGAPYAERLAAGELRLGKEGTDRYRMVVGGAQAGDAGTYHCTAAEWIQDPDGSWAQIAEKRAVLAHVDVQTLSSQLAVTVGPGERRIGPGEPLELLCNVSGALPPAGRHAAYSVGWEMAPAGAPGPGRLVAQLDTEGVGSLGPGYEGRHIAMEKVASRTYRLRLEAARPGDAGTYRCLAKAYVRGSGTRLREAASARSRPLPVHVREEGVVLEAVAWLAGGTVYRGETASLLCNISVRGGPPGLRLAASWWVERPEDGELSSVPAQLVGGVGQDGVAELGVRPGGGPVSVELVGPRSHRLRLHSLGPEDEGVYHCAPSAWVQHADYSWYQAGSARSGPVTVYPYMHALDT

T4: recombinant human IGSF8 extracellular domain tagged by a human Fc region (IGSF8-hFc) (human, UniProt Q969P0 28-579, biotin label in Examples 17, 18 and 28 (site not given))
T4 construct: also called IGSF8-Fc fusion protein; IGSF8-hFc-biotin; not shown: human Fc region
T4 sequence: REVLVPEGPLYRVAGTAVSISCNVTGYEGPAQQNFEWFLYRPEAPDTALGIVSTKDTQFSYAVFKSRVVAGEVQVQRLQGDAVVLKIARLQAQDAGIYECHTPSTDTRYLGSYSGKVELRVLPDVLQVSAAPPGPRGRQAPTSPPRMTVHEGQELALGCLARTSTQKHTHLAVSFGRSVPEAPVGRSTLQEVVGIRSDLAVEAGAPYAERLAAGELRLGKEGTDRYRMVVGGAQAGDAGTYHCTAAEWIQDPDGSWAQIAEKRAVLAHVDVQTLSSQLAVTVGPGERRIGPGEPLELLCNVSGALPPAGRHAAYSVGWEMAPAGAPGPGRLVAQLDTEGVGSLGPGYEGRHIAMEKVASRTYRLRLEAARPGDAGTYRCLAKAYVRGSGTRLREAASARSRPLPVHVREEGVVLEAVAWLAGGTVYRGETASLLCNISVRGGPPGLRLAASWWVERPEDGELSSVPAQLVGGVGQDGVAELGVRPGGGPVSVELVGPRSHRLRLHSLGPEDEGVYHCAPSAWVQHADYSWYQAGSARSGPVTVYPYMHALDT

T5: human IGSF8 expressed on the cell surface (human, UniProt Q969P0 28-613)
T5 construct: whole, on cells; also called human IGSF8 on CT26 cells; IGSF8 on MC38 cells
T5 sequence (looked up): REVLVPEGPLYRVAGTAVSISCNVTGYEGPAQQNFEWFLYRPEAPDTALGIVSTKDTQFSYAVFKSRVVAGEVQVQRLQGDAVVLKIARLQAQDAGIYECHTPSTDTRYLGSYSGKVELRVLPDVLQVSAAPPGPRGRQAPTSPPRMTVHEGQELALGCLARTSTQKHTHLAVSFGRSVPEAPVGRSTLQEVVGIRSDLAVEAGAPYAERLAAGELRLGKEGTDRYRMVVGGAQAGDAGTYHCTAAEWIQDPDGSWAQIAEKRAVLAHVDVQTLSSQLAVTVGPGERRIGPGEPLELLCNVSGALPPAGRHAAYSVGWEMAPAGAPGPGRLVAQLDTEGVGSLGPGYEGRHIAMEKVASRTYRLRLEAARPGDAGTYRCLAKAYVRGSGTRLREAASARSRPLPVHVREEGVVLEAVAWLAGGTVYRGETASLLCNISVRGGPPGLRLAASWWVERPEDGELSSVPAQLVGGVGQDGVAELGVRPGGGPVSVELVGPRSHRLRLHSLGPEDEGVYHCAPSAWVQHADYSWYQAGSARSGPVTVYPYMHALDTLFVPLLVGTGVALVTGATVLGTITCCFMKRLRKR


Assays:
[1] = target: T1, IGSF8 extracellular domain (ED); experiment: ELISA on IGSF8 extracellular domain
[2] = target: T2, D1 domain of IGSF8 (recombinant protein); experiment: SPR, Biacore T100
[3] = target: T3, full-length IGSF8 (recombinant antigen …); experiment: SPR, Biacore T100
[4] = target: T4, recombinant human IGSF8 extracellular …; experiment: FACS, biotin-labelled IGSF8-hFc on CT26 cells expressing the KIR, MFI normalized to Thy1.1
Procedure: For this experiment, different human KIR receptors (KIR2DL1, KIR2DL2, KIR2DL3, KIR2DL4, KIR2DL5A, KIR2DL5B, KIR3DL1, KIR3DL2, KIR3DL3) were first cloned into a proprietary lentiviral vector containing a thy1.1 tag (FIG. 17A). Then mouse CT26 cells, were transducted by these lentiviral constructs, and IGSF8 binding was tested with biotin-labelled recombinant IGSF8 hFc fusion protein. The mean fluorescence intensity (MFI) of IGSF8 binding to different CT26 cells were normalized by the expression of different KIRs on CT26 cells using an anti-thy1.1 mAb (Biolegend) via flow cytometry.
KLRC1 also contains a ITIM motif in its intracellular domain, and was known to be a inhibitory receptor of NK or CD8⁺ T cells as part of a heterodimer with KLRD1 on the cell surface. […] Specifically, 100,000 CT26 cells overexpressing the antigens (KIRs or KLRs) were washed with PBS buffer containing 2% FBS, and incubated with 100 μL IGSF8 recombinant proteins or antibodies (5 μg/mL) for 30 minutes on ice. Cells were then washed twice with wash buffer, and incubated with 100 μL of 1:100 anti-human Fc-PE antibody for 15 minutes on ice. Cells were washed twice with wash buffer and analyzed on a FACS analyzer (CytoFlex, Beckman). In these experiments, the mean fluorescence intensity (MFI) of IGSF8 binding to different CT26 cells were normalized by the expression of different KLRs on CT26 cells using an anti-thy1.1 mAb via flow cytometry.

[5] = target: T5, human IGSF8 expressed on the cell …; experiment: FACS on CT26 cells with forced surface expression of human IGSF8
Procedure: For antibody binding assays based on cell-expressed antigens, 100,000 cells overexpressing the antigen (either the full-length IGSF8 or the D1 domain thereof) were washed with PBS buffer containing 2% FBS, and then incubated with 100 μL of antibodies or IgG of different concentrations for 30 minutes on ice. Cells were then washed twice with wash buffer, and incubated with 100 μL of 1:100 anti-human Fc-PE antibody for 15 minutes on ice. Cells were washed twice with wash buffer and analyzed on a FACS analyzer (CytoFlex, Beckman).

Row | Binder | binding result [1] | Kd [2] [nM] | Kd [3] [nM] | other results
1 | Antibody C9 (antibody, V domains shown, also called anti-IGSF8 C9) VH: EVQLVESGGGLVQPGGSLRLSCAASGFTFSRYDMSWVRQAPGKGLEWVSRIRYSGGRTGYADSVKGRFTISRDNSKNTLYLQMNSLRAEDTAVYYCARGVRYCSSPSCSRGPRYAMDVWGKGTTVTVSS VL: DVVMTQSPATLSLSPGEGATLSCRASQSVRGYLAWYQQKPGQAPRLLIYDTFKRATGIPARFSGSGSGADFTLTISSLEPEDSAVYYCQQYFASPWTFGQGTKVEIKR | binds | – | – | –
2 | Antibody C8 (antibody, V domains shown, also called anti-IGSF8 C8) VH: not shown VL: DIQMTQSPSSVSASVGDRVTITCRASQGISSRLAWYQQKPGKAPKLLIYAASSLQSGVPSRFSGSGSGTDFTLTISSLQPEDFATYYCQQRHSYPITFGQGTRLEIKR | binds | – | – | –
3 | Antibody C35 (1B1) (antibody, V domains shown, also called mAb-1B1 (C35)) VH: EVQLLESGGGLVQPGGSLRLSCAVSGFTFNSFAMSWVRQAPGKGLEWVSAISGSGGGTYYADSVKGRFTISRDNSKNTLYLQMNSLRAEDTAVYYCAREGWEVRTPGYFDYWGQGTLVTVSS VL: DVVMTQSPSSLSASVGDRVTITCRASHRIFSYLTWYHQKPGKAPNLLISGASSLGAGVPSRFSGSGSGTDFTLTISSLQPEDFGTYYCQQSFSDPYTFGQGTKLEIKR | – | < 50 | 2.06 | –
4 | KIR2DL5A expressed on CT26 cells (receptor, human, UniProt Q8N109 22-375, looked up, whole, on cells) HEGGQDKPLLSAWPSAVVPRGGHVTLLCRSRLGFTIFSLYKEDGVPVPELYNKIFWKSILMGPVTPAHAGTYRCRGSHPRSPIEWSAPSNPLVIVVTGLFGKPSLSAQPGPTVRTGENVTLSCSSRSSFDMYHLSREGRAHEPRLPAVPSVNGTFQADFPLGPATHGGTYTCFGSLHDSPYEWSDPSDPLLVSVTGNSSSSSSSPTEPSSKTGIRRHLHILIGTSVAIILFIILFFFLLHCCCSNKKNAAVMDQEPAGDRTVNREDSDDQDPQEVTYAQLDHCVFTQTKITSPSQRPKTPPTDTTMYMELPNAKPRSLSPAHKHHSQALRGSSRETTALSQNRVASSHVPAAGI | – | – | – | binding result [4]: no binding
5 | Antibody C30 (B34) (antibody, V domains shown, Expressed in CHO cells; also called mAb-B34 (C30)) VH: EVQLLESGGGLVQPGGSLRLSCAASGFTFSSYAMSWVRQAPGKGLEWVSGITGSGGSTYYADSVKGRFTISRDNSKNTLYLQMNSLRAEDTAVYYCARGRQVDKWGQGTLVTVSS VL: DIMLTQSPSSLSASVGDRVTITCRASQSIHNYLNWIQQTPGKAPKLLVFAASTLQRGVPPRYSGRGSGTEFTLTISSLQPEDFATYYCQQSYTTPLTFGGGTKVEIRR | – | < 50 | 13.8 | EC50 [5]: 7.88 nM
6 | Antibody C39 (8G4) (antibody, V domains shown, also called mab-8G4 (C39)) VH: EVQLLESGGGLVQPGGSLRLSCAASGFTFSSYAMSWVRQAPGKGLEWVSGITGSGGSTYYADSVKGRFTISRDNSKNTLYLQMNSLRAEDTAVYYCARSRNLDSWGQGTLVTVSS VL: DIQLTQSPSSLSASVGDRVTITCRASQSIHNYLNWIQQTPGKAPKLLVFAASTLQRGVPPRYSGRGSGTEFTLTISSLQPEDFATYYCQQSYTTPLTFGGGTKVEIR | – | < 50 | – | –
